Several values for one entry are separate records, joined by “and”; a condition that tells them apart may be missing. Equal entries are not always repeated. Where no end group is shown, it is not given here.
Tests used:
[1] = target: T1, human corticotrophin releasing hormone receptor type 2 (CRHR2) (human) (UniProt Q13324); assay: radioligand competition against [125I]-anti-sauvagine-30, membranes of SK-N-MC cells with human CRHR2
T1 sequence (looked up): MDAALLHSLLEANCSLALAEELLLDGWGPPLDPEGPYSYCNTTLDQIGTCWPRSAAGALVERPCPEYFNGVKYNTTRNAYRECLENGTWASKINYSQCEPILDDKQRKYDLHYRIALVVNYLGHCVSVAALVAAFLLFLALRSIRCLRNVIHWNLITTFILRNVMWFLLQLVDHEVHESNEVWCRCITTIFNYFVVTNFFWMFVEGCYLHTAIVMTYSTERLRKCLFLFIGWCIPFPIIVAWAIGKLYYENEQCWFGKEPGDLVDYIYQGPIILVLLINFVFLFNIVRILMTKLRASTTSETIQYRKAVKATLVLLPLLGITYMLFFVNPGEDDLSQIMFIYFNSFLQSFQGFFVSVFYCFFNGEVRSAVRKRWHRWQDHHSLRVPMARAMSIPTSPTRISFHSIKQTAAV

[2] = target: T2, human corticotrophin releasing hormone receptor type 1 (CRHR1) (human, UniProt P34998 24-415); assay: radioligand competition against [125I]-(Tyr0)-sauvagine, CRHR1 assay; ND = Not detectable
T2 construct: whole, on cells; cAMP assay on whole cells; radioligand assay on cell membranes; also called h-CRHR1; CRH receptor type 1
T2 sequence (looked up): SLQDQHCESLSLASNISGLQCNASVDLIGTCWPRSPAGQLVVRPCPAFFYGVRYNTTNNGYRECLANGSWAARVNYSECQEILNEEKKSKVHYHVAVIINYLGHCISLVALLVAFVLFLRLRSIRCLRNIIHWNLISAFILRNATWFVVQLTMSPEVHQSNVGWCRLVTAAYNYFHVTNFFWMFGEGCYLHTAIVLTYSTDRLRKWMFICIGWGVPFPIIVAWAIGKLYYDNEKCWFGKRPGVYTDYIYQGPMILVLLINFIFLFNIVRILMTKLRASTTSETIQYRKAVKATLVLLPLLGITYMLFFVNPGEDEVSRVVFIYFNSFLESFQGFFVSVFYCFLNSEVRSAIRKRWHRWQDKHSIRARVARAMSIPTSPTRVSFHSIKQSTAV

[3] = target: T1, human corticotrophin releasing hormone receptor type 2 (CRHR2) (human); assay: cell-based or functional assay

- pKI [1]: 7.57 -log10(M)
- binding result [2]: no binding
- pA50 [3]: 9.32 -log10(M) and 9.58 -log10(M) and 9.23 -log10(M)
Binder: HPGSRIVLSLDVPIGLLQILLEQARARAAREQATTNARILARV-NH2 (also called h-SRP) [human stresscopin related peptide]

Source: patent publication US20110105397A1, “METHOD FOR TREATING HEART FAILURE WITH STRESSCOPIN-LIKE PEPTIDES” (priority 2009, published 2011)
